Measurements taken from patent publication US20190127480A1 (Regeneron, published 2019).
Residue numbers refer to the chain shown, from its start.

B1: H2M2789N (antibody, mouse IgG2, V domains shown)
VH: QVTLKESGPALVKPTQTLTLTCTFSGFSLSTSGMCVSWIRQPPGKALEWLARIDWDDDKYYSTSLKTRLTISKDTSKNQVVLTMTNMDPVDTATYYCARMDIVGARGGWFDPWGQGTLVTVSS
VL: DIQMTQSPSSLSASVGDRVTITCRASQGISNYLAWFQQKPGKAPKSLIYAASSLQSGVPSKFSGSGSGTDFTLTISSLQPEDFATYYCQQYNSYPLTFGGGTKVEIK
B2: H1M3544N (antibody, mouse IgG1, V domains shown)
VH: EVQLVESGGGLVQPGRSLRLSCAASGFTFDDYTMHWVRQVPGKGLEWVSGISWNSGSLAYADSVKGRFTISRDNAKNSLYLQMNSLHPEDTALYYCVKDGSGYGHYSYYGLDVWGQGTTVTVSS
VL: not shown
B3: H2M2862N (antibody, mouse IgG2, V domains shown)
VH: QVQLVESGGGVVQPGRSLRLSCAASGFTFRSYGMHWVRQAPGKGLEWVAMIYYDGNNKKYADSVRGRFTISRDNSKNTLYLQMNSLRVEDTAVYFCARGPGYNWLDPWGQGTLVTVSS
VL: EIVMTQSPATLSVSPGERATLSCRASQSVSRNLAWYQQKPGQAPRLLIYGASTRATDIPARFSGSGSGTEFILNISSLQSEDFALYYCQQYSNWPLTFGGGTEVEIK
B4: H2M2886N (antibody, mouse IgG2, V domains shown)
VH: B3 VH with Y32F, K43R, Y53F, N56K, K59Y, Q82E, N84S, V88A
VL: EIVMTQSPATLSVSPGERVILSCRASQSISRNLAWYQQKPGQAPRLLIYGATTRATGVPARFSGSGSGTEFTLTISSLQSEDFAVFYCQQYNNRPLTFGGGTEVEIK
B5: H2M2885N (antibody, mouse IgG2, V domains shown)
VH: B3 VH with Y32F, K43R, Y53F, N56K, K59Y, Q82E, N84S, V88A
VL: B4 VL
B6: H2M3540N (antibody, mouse IgG2, V domains shown)
VH: QVHLEESGGGVVQPGRSLRLSCSASGFTFSSYAMHWVRQAPGKGLEWVAVIWYDGTNKYYLDSVKGRFTISRDNSKNTLFLQMNSLRAEDTAVYYCARDRGSIITHWGQGTLVTVSS
VL: DIQMTQSPSSLSASIGDRVTITCRASQNISSYLNWYQQKPGKAPKLLIYAASSLQSGVPSRFSGSGSGTDFTLTISSLQPEDFATYYCQQTYSTPPITFGQGTRLEIK
B7: H2M3543N (antibody, mouse IgG2, V domains shown)
VH: EVQLVESGGGLVQPGRSLRLSCAASGFTFDDYTMHWVRQAPGKGLEWVSDISWNSGSIGYADSVKGRFTVSRDNAKNSLYLQMNSLRGEDTALYYCAKDMSGYAHYGYYGMDVWGQGTTVTVSS
VL: B6 VL with I15V, N28S, S30R, S31N, A43V, T91S, T94N
B8: H2M2778N (antibody, mouse IgG2, V domains shown)
VH: EVQLVESGGGLVQPGRSLRLSCAASGFTFDDYSMHWVRQAPGKGLEWVSGISWNSRSIDYADSVKGRFTISRDNAKNSLYLQMNSLRAEDTALYYCVKDNSGYGRYYYYGMDVWGQGTTVSVSS
VL: KIVMTQSPATLSVSPGERATLSCRASQSVSGNLAWYQQKPGQAPRLLIYGASTRATSIPARFSGSGSGTEFTLTISSLQSEDFAVYFCQHYYNWPLTFGGGTKVEIR
B9: H2M2690N (antibody, mouse IgG2, V domains shown)
VH: EVQLVESGGGLVQPGRSLRLSCAASGFTFDDYTMHWVRQAPGKGLEWVSGISWNSGSIGYADSVKGRFTISRDNAKKSLYLQMNSLRAEDTALYYCAKDNSGYGHYYYGMDVWGQGTTVTVAS
VL: B8 VL with K1E, G31S, S57G, F87Y, Y92I, R107K
notes: H2M: mouse IgG2 Fc, human variable regions; divalent
B10: H1M2692N (antibody, mouse IgG1, V domains shown)
VH: B8 VH with R16G, T28S, S33T, A40P, R56G, D59G, E89G, V97A, R105Y, S121T
VL: B8 VL with K1E, G31S, S57G, F87Y, H90Q, R107K
notes: H1M: mouse IgG1 Fc, human variable regions; divalent
B11: H2M2778N (antibody, mouse IgG2, V domains shown)
VH: B8 VH
VL: B8 VL
notes: as for B9
B12: H2M2691N (antibody, mouse IgG2, V domains shown)
VH: B9 VH
VL: B8 VL with K1E, G31S, S57G, F87Y, Y92I, R107K
notes: as for B9
B13: H2M2707N (antibody, mouse IgG2, V domains shown)
VH: B3 VH with A23I, K59Y, V88A, E89D
VL: B3 VL with R31S, D57G, I72T, N74T, L85V, S92N, W94R, E103K
notes: as for B9
B14: H2M2706N (antibody, mouse IgG2, V domains shown)
VH: B3 VH with G33A, I51V, K58Q, K59Y, V88A, E89D
VL: B3 VL with D57G, E70D, I72T, N74T, L85V, S92N, E103K, E105V
notes: as for B9
B15: H1H5799P (antibody, human IgG1, V domains shown)
VH: QVQLVQSGAEVKKPGASVKVSCKASGYTFIGYYMHWVRQAPGQGLEWMGWINPKSGGTNYAQKFQGRVTMTGDTSISTAYMELSRLRSDDTAVFYCARMGDGAMFDYWGQGTLVTVSS
VL: DIQMTQSPSSLSASVGDRVTITCRASQRISSYLNWYQQKAGKAPKVLIYTASSLQSGVPSRFSGSGSGTDFTLTISSLQPEDFATYYCQQSYSTPLTFGGGTKVEIK
B16: H2M3541N (antibody, mouse IgG2, V domains shown)
VH: B7 VH with Q13R, S57T, V70I, G88P, G107Y
VL: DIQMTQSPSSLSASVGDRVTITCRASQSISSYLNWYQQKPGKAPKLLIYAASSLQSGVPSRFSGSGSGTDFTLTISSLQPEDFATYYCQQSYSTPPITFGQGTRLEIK
B17: H1M3549N (antibody, mouse IgG1, V domains shown)
VH: B7 VH with A23V, T28P, D30A, V70I, G88T, G107F
VL: not shown
notes: as for B10
B18: H1M3613N (antibody, mouse IgG1, V domains shown)
VH: B7 VH with R19K, A23T, D30A, A40G, I58K, V70I, G88T, G107Y, G110A, M111L
VL: not shown
B19: H1M3542N (antibody, mouse IgG1, V domains shown)
VH: B7 VH with A23V, T28P, D30A, I58K, V70I, G88T, L93F, G107F
VL: not shown
B20: H1M3549N (antibody, mouse IgG1, V domains shown)
VH: B7 VH with A23V, T28P, D30A, V70I, G88T, G107F
VL: not shown
B21: H1M3542N (antibody, mouse IgG1, V domains shown)
VH: B7 VH with A23V, T28P, D30A, I58K, V70I, G88T, L93F, G107F
VL: not shown
notes: as for B10
B22: H1M3613N (antibody, mouse IgG1, V domains shown)
VH: B7 VH with R19K, A23T, D30A, A40G, I58K, V70I, G88T, G107Y, G110A, M111L
VL: not shown
notes: as for B10
B23: H2M2779N (antibody, V domains shown)
VH: B9 VH with R16G, S25T, Y32F, A61V, K77N, H105Y, A122S
VL: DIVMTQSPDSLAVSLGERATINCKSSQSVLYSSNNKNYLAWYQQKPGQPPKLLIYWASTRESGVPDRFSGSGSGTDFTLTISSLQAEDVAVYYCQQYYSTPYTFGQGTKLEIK
B24: H2M3548N (antibody, mouse IgG2, V domains shown)
VH: EVQLVESGGGLVQPGRSLRLSCAASGFKFADYAMHWVRQAPGKGLEWVSEISWNSGSIGYVDSVKGRFTISRDNAKNSLYLQMNSLRAEDTALYYCVKDKSGYGHYYIGMDVWGQGTTVIVSS
VL: not shown
B25: H2M3548N (antibody, mouse IgG2, V domains shown)
VH: B24 VH
VL: not shown
notes: as for B9

Legend:
[1] = molecular target: T1, human CD3 expressed on cells (Jurkat cells, a CD3+ human T-cell line; human PBMC T cells) (human, UniProt P07766 23-207; P04234 22-171); test: cell-based or functional assay
T1 sequence (P07766 23-207 limits assumed, chain 1 of 2): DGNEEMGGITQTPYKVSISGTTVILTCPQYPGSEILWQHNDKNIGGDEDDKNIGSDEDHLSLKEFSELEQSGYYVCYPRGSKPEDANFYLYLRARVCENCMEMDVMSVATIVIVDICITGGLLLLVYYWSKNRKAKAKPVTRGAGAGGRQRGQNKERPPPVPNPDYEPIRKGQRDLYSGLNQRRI
T1 sequence (P04234 22-171 limits assumed, chain 2 of 2): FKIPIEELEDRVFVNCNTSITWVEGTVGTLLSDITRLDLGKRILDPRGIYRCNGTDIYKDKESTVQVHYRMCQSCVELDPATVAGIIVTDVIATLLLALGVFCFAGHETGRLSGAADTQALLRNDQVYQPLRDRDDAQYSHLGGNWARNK

[2] = molecular target: T2, human CD3 expressed on cells (Jurkat cells; human T-cells of PBMC) (human, UniProt P09693 23-182; P20963 22-164); test: cell-based or functional assay
T2 sequence (chain, as listed by the source, chain 1 of 4): as the sequence (P07766 23-207 limits assumed, chain 1 of 2) above
T2 sequence (chain, as listed by the source, chain 2 of 4): as the sequence (P04234 22-171 limits assumed, chain 2 of 2) above
T2 sequence (P09693 23-182, chain 3 of 4): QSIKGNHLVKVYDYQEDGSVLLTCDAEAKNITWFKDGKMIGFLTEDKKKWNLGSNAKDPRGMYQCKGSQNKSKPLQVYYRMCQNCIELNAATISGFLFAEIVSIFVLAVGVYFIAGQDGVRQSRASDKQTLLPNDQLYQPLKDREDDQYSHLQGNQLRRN
T2 sequence (P20963 22-164, chain 4 of 4): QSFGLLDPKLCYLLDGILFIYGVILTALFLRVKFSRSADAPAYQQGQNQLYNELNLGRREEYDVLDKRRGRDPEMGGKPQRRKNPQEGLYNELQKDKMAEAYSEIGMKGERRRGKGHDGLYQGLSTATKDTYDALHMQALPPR

[3] = molecular target: T3, Soluble heterodimeric CD3 protein (hCD3-epsilon/hCD3-delta) with either a human Fc tag (hFcΔAdp/hFc) or a … (human, UniProt P07766 23-126; P04234 22-105); test: SPR Biacore 25C antigen-capture
T3 construct: also called hCD3ε/δ; not shown: Fc tag: human (hFcΔAdp/hFc)
T3 sequence (P07766 23-126 limits assumed, stated change not applied, chain 1 of 2): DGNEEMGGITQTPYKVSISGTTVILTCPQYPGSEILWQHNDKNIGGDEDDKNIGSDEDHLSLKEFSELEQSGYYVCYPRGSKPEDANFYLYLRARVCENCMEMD
T3 sequence (P04234 22-105 limits assumed, stated change not applied, chain 2 of 2): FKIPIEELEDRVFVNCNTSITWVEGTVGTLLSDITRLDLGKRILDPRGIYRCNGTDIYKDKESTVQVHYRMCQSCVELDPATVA
Summary of the method: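 Rate constants fitted to a 1:1 model, giving KD as kd/ka and dissociative half-life as ln2/(60·kd) minutes. Antibodies flowed over CD3ε/δ heterodimer captured on anti-human or anti-mouse Fc surfaces, run on a Biacore T200 at 25 °C.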

[4] = molecular target: T1, human CD3 expressed on cells (Jurkat …); test: FACS on Jurkat cells
Method: FACS data was acquired using the following protocol: Cells at 2×10⁵ per well were incubated with serially diluted antibodies for 30 min on ice. Post incubation, cells were washed and secondary antibody was added and incubated for an additional 30 minutes. After incubation, cells were washed, re-suspended in cold PBS containing 1% BSA and analyzed by flow cytometry with viable Jurkat cells gated by side and forward scatters. The EC₅₀s for cell binding titration were determined using Prism software with values calculated using a 4-parameter non-linear regression analysis.

[5] = molecular target: T2, human CD3 expressed on cells (Jurkat …); test: cell-based or functional assay; remark: listed apart in the source

Binder	U937 Cytotoxicity Human T-cells [2]	Kd [3]	T½ [3]	koff [3]	kon [3]	EC50 [4]	other results
B1							EC50 [M] hPBMC Proliferation [1]: 2.85e-08 M
B2	172 pM						
B3	7.66 pM						
B4	8.06 pM						
B5	3.71 pM						
B6	12.5 pM						
B7	13.1 pM						
B8	0 pM						
B9		0.0799 nM	30.3 h	6.35e-06 s⁻¹	75100 M⁻¹ s⁻¹	4.37 nM	EC50 [M] hPBMC Proliferation [1]: 5.37e-12 M
B10		0.238 nM	19.4 h	9.9e-06 s⁻¹	41900 M⁻¹ s⁻¹	5.99 nM	EC50 [M] hPBMC Proliferation [1]: 1.42e-10 M
B11		0.0468 nM	29.3 h	6.57e-06 s⁻¹	150000 M⁻¹ s⁻¹	3.62 nM	
B12		0.254 nM	19.3 h	9.98e-06 s⁻¹	39400 M⁻¹ s⁻¹	6.77 nM	EC50 [M] hPBMC Proliferation [1]: 3.43e-11 M
B13		0.715 nM	0.683 h	0.000285 s⁻¹	399000 M⁻¹ s⁻¹	124 nM	EC50 [M] hPBMC Proliferation [1]: 1.92e-12 M
B14		0.544 nM	0.633 h	0.000306 s⁻¹	563000 M⁻¹ s⁻¹	2.37 nM	EC50 [M] hPBMC Proliferation [1]: 3.86e-12 M
B15							EC50 [M] hPBMC Proliferation [5]: 1.63e-13 M
B16	53.9 pM						
B17		1.03 nM	0.667 h	0.000289 s⁻¹	281000 M⁻¹ s⁻¹	2.3 nM	
B18	866 pM						
B19	29.2 pM						
B20	107 pM						
B21		0.457 nM	0.967 h	0.0002 s⁻¹	437000 M⁻¹ s⁻¹	2.01 nM	
B22		0.435 nM	2 h	9.6e-05 s⁻¹	220000 M⁻¹ s⁻¹	10.3 nM	
B23	675 pM						
B24	5.5 pM						
B25						1.1 nM	EC50 [M] hPBMC Proliferation [1]: 1.89e-12 M
